The assay addresses T1, Human recombinant AGO2, full-length protein (human, UniProt Q9UKV8 1-859).
T1 construct: human AGO2 (argonaute 2), full-length recombinant protein; also called full-length AGO2; source: bought: Biorbyt
Put plainly: ELISA; plate coated with NRP1-Fc; full-length AGO2 pre-mixed or not with an equimolar amount of miR-20a (1 h, 37°C, Ca/Mg-HBSS) and serially diluted; bound AGO2 detected with anti-pan AGO2 antibody, anti-mouse IgG-HRP and TMB (OD450 minus non-specific binding). To be noted: both partners purified. On the technique in general: ELISA stands for enzyme-linked immunosorbent assay.

The values that follow come from article PMC5356539, “Neuropilin-1 is a receptor for extracellular miRNA and AGO2/miRNA complexes and mediates the internalization of miRNAs that modulate cell function” (Oncotarget, 2016).

T1 sequence (Q9UKV8 whole entry): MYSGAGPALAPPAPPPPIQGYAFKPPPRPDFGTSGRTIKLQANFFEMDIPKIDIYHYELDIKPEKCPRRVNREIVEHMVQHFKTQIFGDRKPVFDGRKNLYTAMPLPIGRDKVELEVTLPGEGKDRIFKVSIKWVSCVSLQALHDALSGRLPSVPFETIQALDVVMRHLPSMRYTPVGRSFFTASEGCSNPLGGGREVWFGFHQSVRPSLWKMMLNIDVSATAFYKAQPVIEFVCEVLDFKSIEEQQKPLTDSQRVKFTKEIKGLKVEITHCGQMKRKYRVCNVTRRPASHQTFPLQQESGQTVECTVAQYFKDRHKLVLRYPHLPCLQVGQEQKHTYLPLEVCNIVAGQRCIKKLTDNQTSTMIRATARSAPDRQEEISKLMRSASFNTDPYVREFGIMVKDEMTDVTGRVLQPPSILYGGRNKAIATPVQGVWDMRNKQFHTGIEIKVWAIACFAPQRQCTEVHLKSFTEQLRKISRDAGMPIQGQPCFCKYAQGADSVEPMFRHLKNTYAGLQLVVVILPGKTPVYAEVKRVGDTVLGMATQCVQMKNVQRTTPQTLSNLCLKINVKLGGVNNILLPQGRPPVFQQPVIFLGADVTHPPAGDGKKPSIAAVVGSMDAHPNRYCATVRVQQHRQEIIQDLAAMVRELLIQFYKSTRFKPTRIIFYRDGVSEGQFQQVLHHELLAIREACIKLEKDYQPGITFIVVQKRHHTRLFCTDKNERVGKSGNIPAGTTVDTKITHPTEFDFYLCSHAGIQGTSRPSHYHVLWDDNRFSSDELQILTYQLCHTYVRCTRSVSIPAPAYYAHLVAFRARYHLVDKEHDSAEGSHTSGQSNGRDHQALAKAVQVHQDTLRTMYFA

B1: Recombinant full-length rat neuropilin-1/Fc chimera (Fc fusion, UniProt Q9QWJ9 22-855, looked up)
chain: FRSDKCGGTIKIENPGYLTSPGYPHSYHPSEKCEWLIQAPEPYQRIMINFNPHFDLEDRDCKYDYVEVIDGENEGGRLWGKFCGKIAPSPVVSSGPFLFIKFVSDYETHGAGFSIRYEIFKRGPECSQNYTAPTGVIKSPGFPEKYPNSLECTYIIFAPKMSEIILEFESFDLEQDSNPPGGVFCRYDRLEIWDGFPEVGPHIGRYCGQKTPGRIRSSSGILSMVFYTDSAIAKEGFSANYSVLQSSISEDFKCMEALGMESGEIHSDQITASSQYGTNWSVERSRLNYPENGWTPGEDSYREWIQVDLGLLRFVTAVGTQGAISKETKKKYYVKTYRVDISSNGEDWITLKEGNKAIIFQGNTNPTDVVFGVFPKPLITRFVRIKPASWETGISMRFEVYGCKITDYPCSGMLGMVSGLISDSQITASNQGDRNWMPENIRLVTSRTGWALPPSPHPYINEWLQVDLGDEKIVRGVIIQGGKHRENKVFMRKFKIAYSNNGSDWKMIMDDSKRKAKSFEGNNNYDTPELRAFTPLSTRFIRIYPERATHSGLGLRMELLGCEVEVPTAGPTTPNGNPVDECDDDQANCHSGTGDDFQLTGGTTVLATEKPTIIDSTIQSEFPTYGFNCEFGWGSHKTFCHWEHDSHAQLRWRVLTSKTGPIQDHTGDGNFIYSQADENQKGKVARLVSPVVYSQSSAHCMTFWYHMSGSHVGTLRVKLHYQKPEEYDQLVWMVVGHQGDHWKEGRVLLHKSLKLYQVIFEGEIGKGNLGGIAVDDISINNHIPQEDCAKPTDLDKKNTEIKIDETGSTPGYEEGKGDKNISRKPGNVLKTLDP
notes: rat neuropilin-1, unmodified extracellular domain; transmembrane and cytosolic domains replaced with a C-terminal portion of human IgG-Fc; also called NRP1-Fc; NRP1; source: bought: R&D Systems; not shown: Fc (human IgG), C-terminal, kept
As to B1, the binding result is “binds”.
